Results: paper PMC10330844 (Traffic (Copenhagen, Denmark), 2023)

B1: VAMP7, endogenous (natural protein, human (endogenous in HEK293T), UniProt P51809 1-220, looked up)
chain: MAILFAVVARGTTILAKHAWCGGNFLEVTEQILAKIPSENNKLTYSHGNYLFHYICQDRIVYLCITDDDFERSRAFNFLNEIKKRFQTTYGSRAQTALPYAMNSEFSSVLAAQLKHHSENKGLDKVMETQAQVDELKGIMVRNIDLVAQRGERLELLIDKTENLVDSSVTFKTTSRNLARAMCMKNLKLTIIIIIVSIVFIYIIVSPLCGGFTWPSCVKK
B2: GST-STX5 (rSTX5 (55-333) in pGEX-KG) (domain or fragment, UniProt Q08851 55-333, looked up)
chain: MSCRDRTQEFLSACKSLQSRQNGIQTNKPALHATRQCSEFTLMARRIGKDLSNTFAKLEKLTILAKRKSLFDDKAVEIEELTYIIKQDINSLNKQIAQLQDFVRAKGSQSGRHLQTHSNTIVVSLQSKLASMSNDFKSVLEVRTENLKQQRNRREQFSRAPVSALPLAPNNLGGGPIVLGGESRASRDVAIDMMDPRTSQQLQLIDEQDSYIQSRADTMQNIESTIVELGSIFQQLAHMVKEQEETIQRIDENVLGAQLDVEAAHSEILKYFQSVTSNR
B3: VTI1B, endogenous (natural protein, human (endogenous in HEK293T), UniProt Q9UEU0 1-232, looked up)
chain: MASSAASSEHFEKLHEIFRGLHEDLQGVPERLLGTAGTEEKKKLIRDFDEKQQEANETLAEMEEELRYAPLSFRNPMMSKLRNYRKDLAKLHREVRSTPLTATPGGRGDMKYGIYAVENEHMNRLQSQRAMLLQGTESLNRATQSIERSHRIATETDQIGSEIIEELGEQRDQLERTKSRLVNTSENLSKSRKILRSMSRKVTTNKLLLSIIILLELAILGGLVYYKFFRSH
B4: SNAP29, endogenous (natural protein, human (endogenous in HEK293T), UniProt O95721 1-258, looked up)
chain: MSAYPKSYNPFDDDGEDEGARPAPWRDARDLPDGPDAPADRQQYLRQEVLRRAEATAASTSRSLALMYESEKVGVASSEELARQRGVLERTEKMVDKMDQDLKISQKHINSIKSVFGGLVNYFKSKPVETPPEQNGTLTSQPNNRLKEAISTSKEQEAKYQASHPNLRKLDDTDPVPRGAGSAMSTDAYPKNPHLRAYHQKIDSNLDELSMGLGRLKDIALGMQTEIEEQDDILDRLTTKVDKLDVNIKSTERKVRQL

Experiments:
[1] = molecular target: T1, Syntaxin-5 (STX5), endogenous, as precipitated by the anti-STX5 antibody (human (endogenous in HEK293T), UniProt Q13190 1-355); experiment: co-IP
T1 sequence (looked up): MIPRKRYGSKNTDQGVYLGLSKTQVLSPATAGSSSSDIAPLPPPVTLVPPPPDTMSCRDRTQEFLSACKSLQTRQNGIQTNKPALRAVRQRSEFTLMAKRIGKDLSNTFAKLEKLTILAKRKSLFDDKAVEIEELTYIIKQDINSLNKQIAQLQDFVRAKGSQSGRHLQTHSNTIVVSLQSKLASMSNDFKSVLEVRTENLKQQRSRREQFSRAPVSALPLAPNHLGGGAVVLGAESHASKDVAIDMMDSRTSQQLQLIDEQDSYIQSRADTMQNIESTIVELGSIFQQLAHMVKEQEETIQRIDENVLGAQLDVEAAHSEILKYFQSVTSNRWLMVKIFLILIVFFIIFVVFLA

[2] = molecular target: T2, SNAP29-His6 (SNAP29 in pET23a) (UniProt O95721 1-258); experiment: pull-down
T2 sequence (looked up): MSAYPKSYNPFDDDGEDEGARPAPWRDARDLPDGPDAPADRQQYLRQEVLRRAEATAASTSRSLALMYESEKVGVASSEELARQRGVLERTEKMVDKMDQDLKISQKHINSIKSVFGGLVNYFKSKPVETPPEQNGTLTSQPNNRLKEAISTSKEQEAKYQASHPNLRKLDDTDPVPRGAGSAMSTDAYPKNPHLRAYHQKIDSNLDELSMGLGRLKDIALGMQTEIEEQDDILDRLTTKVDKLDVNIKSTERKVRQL

Row | Binder | percent of the cellular protein present in STX5 complexes (GS28 KO cells) [1] [%] | stoichiometry N [2]
1 | B1 | < 25 | 
2 | B2 |  | 1
3 | B3 | < 25 | 
4 | B4 | ~35 | 
